Measurements: patent US20240209104A1 (SHANGHAI ACEMAB, published 2024)
Where a chain is given by its changes, count along the chain named.

T1: hOX40-EC-His (human, UniProt P43489 29-214)
T1 construct: extracellular domain; bought protein; also called recombinant human OX40 antigen protein; human OX40 extracellular segment antigen; not shown: 6 His label
T1 sequence (looked up): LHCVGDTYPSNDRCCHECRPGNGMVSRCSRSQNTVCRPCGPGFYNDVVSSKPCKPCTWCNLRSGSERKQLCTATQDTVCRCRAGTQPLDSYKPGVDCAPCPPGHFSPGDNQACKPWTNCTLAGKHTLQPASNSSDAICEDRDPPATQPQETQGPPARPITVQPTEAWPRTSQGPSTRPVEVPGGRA

T2: OX40 on OX40 over-expressed cells (UniProt P43489 29-277)
T2 construct: whole, on cells; human implied; also called OX40 expressed on the surface of OX40 expressing cell
T2 sequence (looked up): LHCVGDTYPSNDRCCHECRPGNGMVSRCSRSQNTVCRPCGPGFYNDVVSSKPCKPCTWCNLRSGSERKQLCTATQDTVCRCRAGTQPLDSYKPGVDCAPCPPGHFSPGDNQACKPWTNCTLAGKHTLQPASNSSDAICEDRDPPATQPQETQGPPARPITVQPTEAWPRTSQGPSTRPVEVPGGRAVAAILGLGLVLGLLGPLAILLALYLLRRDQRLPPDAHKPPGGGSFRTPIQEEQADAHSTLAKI

B1: 38D9-12 (antibody, V domains shown)
VH: QVQLQESGPGLVKPSGTLSLTCAVSGDSISSTNWWSWVRQPPGKGLEWIGEINHNGSTYYNPSLKSRVTISVDKSKNQFSLKLRSVTAADTAVYYCAREDYYYMDVWGKGTTVTVSS
VL: DIQMTQSPSSLSASVGDRVTITCRTSQGIWNDLGWYQQKPGKAPKRLIYAASSLQSGVPSRFSGSESGTEFTLTISSLQPEDFATYYCLQYNNYPLTFGGGTKVEIKR
notes: hybridoma antibody, tested as culture supernatant
B2: 23D1-8 (antibody, V domains shown)
VH: QVQLVQSGAEVKKPGASVKVSCKASGYTFTGYYIHWVRQAPGQGLEWMGRINPNSGGTDFAQKFQARVTMTRDTAINIVYMELSRLRSDDTAVYYCARVVVASYYFDNWGQGTLVTVSS
VL: not shown
notes: as for B1
B3: 14D3-7-3 (antibody, V domains shown)
VH: EVQLVESGGGLVKPGGSLRLSCAASGFTFSNAWMSWVRQAPGKGLEWVGRIKRKTDGGTTDYATPVKGRFTISRDASKNTLYLQMNSLKTEDTAVYYCTSAARRGYFDIWGRGTLVTVSS
VL: EIVLTQSPGTLSLSPGERATLSCRASQSVSSRYLAWYQQKPGQAPRLLIYGASNRATGMPDRFSGSGSGTDFTLTISRLEPEDFAMYYCQQYGSSPITFGQGTRLEIKR
notes: as for B1
B4: 23C4-1-5 (antibody, V domains shown)
VH: QVQLQESGPGLVKPSGTLSLTCAVSGGSISSSNWWSWVRQPPGKGLEWIGEIYHSGSTTYNPSLKSRVTISVDKSKSQISLKLTSVTAADTAVYYCARGDVLLWFGGRGTLVTVSS
VL: B3 VL with T20S, R32N, A44T, N54I, M59I, T75I, M86V, G93S
notes: as for B1
B5: 24B9-10 (antibody, V domains shown)
VH: QVQLQESGPGLVKPSGTLSLTCAVSGGSISSSNWWTWVRQPPGKGLEWIGEIYHSGSTNYNPSLKSRVTISVDKSKNQFSLKLSSVTAADTAVYYCARTGPIVTTEYWGQGTLVTVSS
VL: B3 VL with R32G, N54I, M59I, M86L, I97L, Q101G, R104K, L105V
notes: as for B1
B6: 1F10-12-3 (antibody, V domains shown)
VH: QVQLQESGPGLVKPSGTLSLTCAVSGGSISNSNWWNWVRQPPGRGLEWIGEIYHSGSTNYNPSLKSRVTISVDKSKNQFSLKLTSVTAADTAVYYCARYSTPFFDYWGQGNLVTVSS
VL: DIQMTQSPSSLSASVGDRVTITCRASQSISNYLNWYQQKQGKAPKLLIYGASSLQSGVPSRFSGSGSGTDFTLTINSLQPEDFATYCCQQSYNNPLTFGGGTKVEIKR
notes: as for B1
B7: 35B8-6 (antibody, V domains shown)
VH: QITLKESGPTLVKPTQTLTLTCTFSGFSLSTSAVNVGWIRQPHGKALEWLALIFWNDDKRYSPSLKNRLTITKDTSKDQVVLTMSNMDPVDTATYYCAQYNWNSSFDYWGQGTLVTVSS
VL: DIQMTQSPSSLSASLGDRVTITCQASQDINTYLNWYQQKPGKAPKVLIYDASNLETGVPSRFSGSGSGTDFTFTISSLQPEDIATFYCQQYDNLITFGGGTKVEIKR
notes: as for B1
B8: 55H6-6 (antibody, V domains shown)
VH: QVQLVQSGAEVKKPGASVKVSCKASGYTFTSYGISWVRQAPGQGLEWMGWISAYNGHTNYAQKLQGRVTMTTDTSTNTAYMELWSLRSDDTAVYYCTSDYGDYWGQGTLVTVSS
VL: DVVVTQSPLSLPVTLGQPASISCRSSQSLVYSDGNTNLYWFQQRPGQSPRRLIYQVSNRDSGVPDRFSGSGSGTDFTLKISRVEAEDVGVYYCMQGTHWPPALTFGGGTEVEIKR
notes: as for B1
B9: 30B1-3 (antibody, V domains shown)
VH: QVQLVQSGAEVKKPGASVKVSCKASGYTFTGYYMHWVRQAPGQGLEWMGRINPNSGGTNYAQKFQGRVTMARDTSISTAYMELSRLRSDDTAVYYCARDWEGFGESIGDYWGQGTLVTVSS
VL: EIVLTQSPGTLSLSPGERATFSCRASQSVSGSYLAWYQQKPGQAPRLLIHGASSRATGIPDRFSGSGSGTDFTLTISRLEPEDFAVYYCLQYGSSPLTFGGGTKVEIKR
notes: as for B1
B10: 20G6-7-1 (antibody, V domains shown)
VH: QVQLQESGPGLVKPSGTLSLTCAVSGGSISSSNWWSWVRQPPGKGLEWIGEIYHSGNTNYNPSLKSRVTISVDKSKNQFSLKLSSVTAADTAVYYCARGGTTFDYWGQGTLVTVSS
VL: B3 VL with T5M, S7Y, P15S, T57S, D71E, R78S, L105V
notes: as for B1
B11: 16E4-10-5 (antibody, V domains shown)
VH: B4 VH with A23D, T59N, S77N, I79V, T84N, V101I, R108Q
VL: B3 VL with M86V
notes: as for B1

Target: T1, hOX40-EC-His
Assay: ELISA, supernatant 1:100, coated hOX40-EC-His

IgG ELISA (1:100) [OD650] | Binder
2.4 | B1
2.4 | B2
2.2 | B3
2.4 | B4
0.2 | B5
2.3 | B6
2.1 | B7
0.1 | B8
2 | B9

Target: T2, OX40 on OX40 over-expressed cells
Assay: flow cytometry, supernatant on OX40 over-expressed cells
Description: After collecting OX40 over-expressed cells by 200G centrifugation, wash them with PBS containing 3% FCS, and then resuspend them in 2.5 ml of PBS containing 3% FCS. […] Finally, the cells were resuspended in […] of PBS containing 3% FCS for detection by flow cytometry.

Y586 channel PE fluorescence value | Binder
243000 | B1
166000 | B2
274000 | B3
352000 | B10
377000 | B11
63900 | B4
313000 | B5
170000 | B6
243000 | B7
479000 | B8
208000 | B9

Target: T1, hOX40-EC-His
Assay: ELISA, supernatant diluted 50 times, coated OX40 (CK60)

450 nm light absorption [OD450] | Binder
2.01 | B3
2.21 | B10
2.53 | B11
2.63 | B4
2.17 | B6

Target: T1, hOX40-EC-His
Assay: ELISA, supernatant diluted 100 times, coated OX40 (CK60)

450 nm light absorption [OD450] | Binder
2.1 | B1
2.02 | B2
0.574 | B5
0.215 | B7
1.9 | B8
1.89 | B9

Target: T1, hOX40-EC-His
Assay: ELISA, supernatant stoste, coated OX40 (CK60)

450 nm light absorption [OD450] | Binder
2.24 | B1
2.48 | B2
2.19 | B5
1.47 | B7
2.43 | B8
2.31 | B9
